In patent US20170158742A1 (NATIONAL UNIVERSITY OF SINGAPORE, published 2017):

B1: Vaccinia related kinase 1 (enzyme)
chain: MPRVKAAQAGRQSSAKRHLAEQFAVGEIITDMAKKEWKVGLPIGQGGFGCIYLADMNSSESVGSDAPCVVKVEPSDNGPLFTELKFYQRAAKPEQIQKWIRTRKLKYLGVPKYWGSGLHDKNGKSYRFMIMDRFGSDLQKIYEANAKRFSRKTVLQLSLRILDILEYIHEHEYVHGDIKASNLLLNYKNPDQVYLVDYGLAYRYCPEGVHKEYKEDPKRCHDGTIEFTSIDAHNGVAPSRRGDLEILGYCMIQWLTGHLPWEDNLKDPKYVRDSKIRYRENIASLMDKCFPEKNKPGEIAKYMETVKLLDYTEKPLYENLRDILLQGLKAIGSKDDGKLDLSVVENGGLKAKTITKKRKKEIEESKEPGVEDTEWSNTQTEEAIQTRSRTRKRVQK
notes: also called VRK1
B2: DIM1 dimethyladenosine transferase 1 homolog (S. cerevisiae) (enzyme)
chain: MPKVKSGAIGRRRGRQEQRRELKSAGGLMFNTGIGQHILKNPLIINSIIDKAALRPTDVVLEVGPGTGNMTVKLLEKAKKVVACELDPRLVAELHKRVQGTPVASKLQVLVGDVLKTDLPFFDTCVANLPYQISSPFVFKLLLHRPFFRCAILMFQREFALRLVAKPGDKLYCRLSINTQLLARVDHLMKVGKNNFRPPPKVESSVVRIEPKNPPPPINFQEWDGLVRITFVRKNKTLSAAFKSSAVQQLLEKNYRIHCSVHNIIIPEDFSIADKIQQILTSTGFSDKRARSMDIDDFIRLLHGFNAEGIHFS
notes: also called DIMT1
B3: Signal recognition particle 19kDa (other)
chain: MACAAARSPADQDRFICIYPAYLNNKKTIAEGRRIPISKAVENPTATEIQDVCSAVGLNVFLEKNKMYSREWNRDVQYRGRVRVQLKQEDGSLCLVQFPSRKSVMLYAAEMIPKLKTRTQKTGGADQSLQQGEGSKKGKGKKKK
notes: also called SRP19

Target: biotinylated full-length Dengue virus capsid (DENV C) protein (Dengue virus serotype 2 (NGC strain))
Assay: ELISA, coated bought protein, biotinylated DENV C as probe, streptavidin-HRP

Binder	binding result
B1	binds
B2	binds
B3	binds
